The values below come from paper PMC10372912, “Evidence for direct interaction between the oncogenic proteins E6 and E7 of high-risk human papillomavirus (HPV)” (The Journal of Biological Chemistry, 2023).

In test [1] the target is fl-16E7 (human papillomavirus type 16) (UniProt P03129). In words: fluorescence polarisation; direct: 1.5-fold dilution series of MBP-E6 (or MBP) against fixed fl-E7 (350 nM HPV16, 200 nM HPV31) or 350 nM fl-16E7CR1/2; 20 mM Hepes pH 7.5, 200 mM NaCl, 1 mM TCEP, 0.005% Tween-20; one-site-specific binding fit. Background: In fluorescence polarisation assays a small probe gives low polarisation when free and higher when bound to something large.

Test [2] concerns the target fl-16E7CR1/2 (aa 1–44) (human papillomavirus type 16) (UniProt P03129). The description is as above.
For test [3], the target named is fl-16E7 (human papillomavirus type 16) (UniProt P03129). Nature of the test: AUC; sedimentation equilibrium, 12,000 or 18,000 rpm, 20 °C, 20 mM Hepes pH 7.5, 200 mM NaCl, 1 mM TCEP; 100 μM MBP-16E6_4C4S-LxxLL, 100 μM fl-16E7, 100 μM complex (1:1 molar mixture).
The target is the same in test [4]. In words: AUC; sedimentation velocity, 40,000 rpm, 20 °C, 20 mM Hepes pH 7.5, 200 mM NaCl, 1 mM TCEP; fl-16E7 followed at 495 nm; 1:1 molar mixture and titration of MBP-16E6_4C4S-LxxLL (0-150 μM) against 100 μM fl-16E7.
Test [5] has as its target fl-31E7 (human papillomavirus type 31) (UniProt P17387). Nature of the test: fluorescence polarisation; direct: 1.5-fold dilution series of MBP-E6 (or MBP) against fixed fl-E7 (350 nM HPV16, 200 nM HPV31) or 350 nM fl-16E7CR1/2; 20 mM Hepes pH 7.5, 200 mM NaCl, 1 mM TCEP, 0.005% Tween-20; one-site-specific binding fit.
Test [6] has as its target MBP-16E6_4C4S (human papillomavirus type 16). Nature of the test: fluorescence polarisation; competition: nonlabeled 16E7CR1/2 against the fl-16E7/MBP-16E6_4C4S complex (Fig. S5).
Test [7] shares this target. In words: fluorescence polarisation; competition: nonlabeled 16E7CR1/2 (aa 1-44) against the complex of 200 μM MBP-16E6_4C4S and 350 nM fl-16E7CR1/2 (60% saturation).
Test [8] has the same target. Nature of the test: fluorescence polarisation; competition: unlabeled GGG-E7 dimer (two-fold dilutions, from 200 μM HPV16, from 150 μM HPV31) against the preformed complex of fl-E7 with 50 μM MBP-16E6_4C4S or 70 μM MBP-31E6_2C2S-LxxLL (60-80% saturation); FP assay buffer; one-site-specific binding fit.
The next test deals with T1, EYFP-38E7 (human papillomavirus type 38, UniProt Q80908 1-100).
T1 construct: Cloned in pEYFP-C1; SG linker between EYFP and E7; also called EYFP-E7 (HPV38); HPV 38E7; source: C33A, transfected, in cells; not shown: EYFP, N-terminal, kept
T1 sequence: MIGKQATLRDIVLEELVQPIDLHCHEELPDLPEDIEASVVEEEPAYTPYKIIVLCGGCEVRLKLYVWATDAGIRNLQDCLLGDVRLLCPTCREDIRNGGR
Nature of the test: FRET or BRET; flow cytometry-based FRET (FACS-FRET) in C33A cells coexpressing mTagBFP2-E6 and EYFP-E7 of the same HPV type; at least 10% FRET and at least 500 FRET-positive cells count as an interaction; three biological replicates. As to conditions: partners not purified.

In a further test the target is T2, EYFP-31E7 (human papillomavirus type 31, UniProt P17387 1-98).
T2 construct: Cloned in pEYFP-C1; SG linker between EYFP and E7; also called EYFP-E7 (HPV31); HPV 31E7; source: C33A, transfected, in cells; not shown: EYFP, N-terminal, kept
T2 sequence: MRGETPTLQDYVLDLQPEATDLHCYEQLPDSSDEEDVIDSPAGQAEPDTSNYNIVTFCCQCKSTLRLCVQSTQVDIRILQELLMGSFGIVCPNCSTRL
The test is described as above. As to conditions: partners not purified.

The target in the next test is T3, EYFP-16E7 (human papillomavirus type 16, UniProt P03129 1-98).
T3 construct: Cloned in pEYFP-C1; SG linker between EYFP and E7; also called EYFP-E7 (HPV16); HPV 16E7; source: C33A, transfected, in cells; not shown: EYFP, N-terminal, kept
T3 sequence (looked up): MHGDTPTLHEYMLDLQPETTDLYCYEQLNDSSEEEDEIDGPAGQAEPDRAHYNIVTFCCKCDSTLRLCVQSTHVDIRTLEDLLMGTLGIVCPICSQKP
Described as above. As to conditions: partners not purified.

Test [9] addresses MBP-31E6_2C2S-LxxLL (human papillomavirus type 31 | not stated) (UniProt P17386). In words: fluorescence polarisation; competition: unlabeled GGG-E7 dimer (two-fold dilutions, from 200 μM HPV16, from 150 μM HPV31) against the preformed complex of fl-E7 with 50 μM MBP-16E6_4C4S or 70 μM MBP-31E6_2C2S-LxxLL (60-80% saturation); FP assay buffer; one-site-specific binding fit.

The term Kd denotes a measure of binding affinity in units of concentration. The low end stands for a tighter complex, the high end for a looser complex. For MBP-16E6_4C4S (natural protein), the Kd in test [1] was found to be 3 µM; in test [2], 101 µM.
Consider MBP-16E6_4C4S-LxxLL, for which the stoichiometry N (E6 per E7 (2:2 complex)) in test [3] was 1. The percent of fl-16E7 in complex in test [4] amounted to 89%. In test [1], the equilibrium dissociation constant (Kd) is 46.4 µM.
“MBP-31E6_2C2S-LxxLL (from UniProt P17386 1-149)”: the Kd in [5] was 59.4 µM.
One may read the stoichiometry N as the number of molecules, sites or subunits per partner or assembly. As to “fl-16E7 (from UniProt P03129 1-98) (natural protein)”, the stoichiometry N in test [3] stood at 2.
For “nonlabeled 16E7CR1/2 (aa 1–44) (from UniProt P03129 1-44) (peptide)”, the dissociation constant (Kd) in [6] amounted to 288 µM; in test [7], 128 µM.
In [8], “unlabeled GGG-16E7 dimer (from UniProt P03129 1-98) (natural protein)” came in with a Kd of 61.9 µM.

B1: mTagBFP2-38E6 (natural protein)
chain: MELPKPQTVQQLSDKLTVPVEDLLLPCRFCNSFLTYIELREFDYKNLQLIWTQEDFVFACCSSCAYASAQYECQQFYELTVFGREIEQVEQQTIGLIVIRCQYCLKCLDLIEKLDICCSHQAFHKVRGNWKGRCRHCKAIE
notes: Cloned in pmTagBFP-C1; SG linker between the fluorescent protein and the viral protein; also called mTagBFP2-E6 (HPV38); HPV 38E6; source: C33A, transfected, in cells; not shown: mTagBFP2, N-terminal, kept
As for B1, the “percent FRET” value with EYFP-38E7 is 17.9%.

B2: mTagBFP2-31E6 (natural protein)
chain: MFKNPAERPRKLHELSSALEIPYDELRLNCVYCKGQLTETEVLDFAFTDLTIVYRDDTPHGVCTKCLRFYSKVSEFRWYRYSVYGTTLEKLTNKGICDLLIRCITCQRPLCPEEKQRHLDKKKRFHNIGGRWTGRCIACWRRPRTETQV
notes: Cloned in pmTagBFP-C1; SG linker between the fluorescent protein and the viral protein; also called mTagBFP2-E6 (HPV31); HPV 31E6; source: C33A, transfected, in cells; not shown: mTagBFP2, N-terminal, kept
Consider B2, for which the “percent FRET” value in the test with EYFP-31E7 was found to be 16.3%.

B3: mTagBFP2-16E6 (natural protein, human papillomavirus type 16, UniProt P03126 1-158, looked up)
chain: MHQKRTAMFQDPQERPRKLPQLCTELQTTIHDIILECVYCKQQLLRREVYDFAFRDLCIVYRDGNPYAVCDKCLKFYSKISEYRHYCYSLYGTTLEQQYNKPLCDLLIRCINCQKPLCPEEKQRHLDKKQRFHNIRGRWTGRCMSCCRSSRTRRETQL
notes: Cloned in pmTagBFP-C1; SG linker between the fluorescent protein and the viral protein; also called mTagBFP2-E6 (HPV16); HPV 16E6; source: C33A, transfected, in cells; not shown: mTagBFP2, N-terminal, kept
Take B3: in the test with EYFP-16E7, the “percent FRET” value was found to be 13%.

B4: unlabeled GGG-31E7 dimer (natural protein)
chain: GGGMRGETPTLQDYVLDLQPEATDLHCYEQLPDSSDEEDVIDSPAGQAEPDTSNYNIVTFCCQCKSTLRLCVQSTQVDIRILQELLMGSFGIVCPNCSTRL
The molecule B4 displayed a Kd in test [9] of 54.2 µM.
